The text below walks through data of paper PMC4049585, “Identification and Characterization of a Ginsenoside-Transforming β-Glucosidase from Pseudonocardia sp. Gsoil 1536 and Its Application for Enhanced Production of Minor Ginsenoside Rg2(S)” (PLoS ONE, 2014).

Data set [1] deals with T1, O=[N+]([O-])c1ccc(O[C@@H]2O[C@H](CO)[C@@H](O)[C@H](O)[C@H]2O)cc1.
T1 construct: 743 residues, 78,975 Da predicted; GST fusion (pGEX 4T-1) from E. coli BL21(DE3), 105 kDa with GST; forward primer encodes IDPVDLTL after GS
The experiment in a line: purified protein. In kind it is biochemical, Pseudonocardia sp. Gsoil 1536. As to conditions: pNPG 1-20 mM, standard assay 50 mM sodium phosphate pH 7.0, 37°C.

The subject of data set [2] is T2, CC(C)=CCC[C@](C)(O[C@@H]1O[C@H](CO)[C@@H](O)[C@H](O)[C@H]1O)[C@H]1CC[C@]2(C)[C@@H]1[C@H](O)C[C@@H]1[C@@]3(C)CC[C@H](O)C(C)(C)[C@@H]3[C@@H](O[C@@H]3O[C@H](CO)[C@@H](O)[C@H](O)[C@H]3O[C@@H]3O[C@@H](C)[C@H](O)[C@@H](O)[C@H]3O)C[C@]12C.
T2 construct: 743 residues, 78,975 Da predicted; GST fusion (pGEX 4T-1) from E. coli BL21(DE3), 105 kDa with GST; forward primer encodes IDPVDLTL after GS
Kind of data set: initial velocity, Re conversion, Cleland kinetics program. It is filed as biochemical, Pseudonocardia sp. Gsoil 1536. To be noted: Re 0.2-5.0 mM; Re substrate lot purity 87.6%; temperature and buffer of kinetics not given. The text has this: initial velocity, Re conversion, Cleland kinetics program on BglPC28

In the case of BglPC28 (Pseudonocardia sp. Gsoil1536), in data set [1], the Michaelis constant (Km) was determined as 6.36 ± 1.10 mM, the Vmax turned out to be 40 µmol/min/mg, the kcat amounted to 52.7 ± 3.4 s⁻¹ and the catalytic efficiency (kcat/Km) is 8630 ± 2020 M⁻¹ s⁻¹. In addition, in data set [2], the Michaelis constant (Km) stood at 1.42 ± 0.13 mM, the maximal velocity (Vmax) was 5.62 µmol/min/mg, the turnover number (kcat) worked out at 7.4 ± 0.28 s⁻¹ and the specificity constant (kcat/Km) came out at 5280 ± 690 M⁻¹ s⁻¹.

As a reminder, the Km is the substrate concentration at which the rate is half of its maximum. For orientation: Vmax means the top rate of the reaction or transport when substrate is in excess. Broadly, the kcat is the maximal rate divided by the concentration of active sites. What is called kcat/Km is the turnover number divided by the Michaelis constant.
